According to patent US20160003844A1 (MOGAM BIOTHECHNOLOGY INSTITUTE, published 2016):
Where a chain is given by its changes, count along the chain named.

B1: HSA50 (other)
VH: EVQLVESGGGLVQPGGSLRLSCAASGFTFSSYAMGWVRQAPGKGPEVVSLISGSGGSTWYDDSVKGRFTISRDNSKNTLYLQMNSLRAEDTAVYYCASHQFTTTQWGQGTLVTVSS
notes: Human VH domain antibody (single heavy chain variable domain)
B2: HSA9 (other)
VH: B1 VH with F101W, T102S, T103R, T104Q
notes: Human VH domain antibody (single heavy chain variable domain) selected from a CDR-engineered library; its FR2 matches the MG8-4 scaffold
B3: HSA11 (other)
VH: B1 VH with Q100K, T102R, T103N, T104L, Q105K
notes: as for B1
B4: HER3#62 (other)
VH: B1 VH with Q100P, F101P, T102R, T103V, T104D, Q105T
notes: as for B1
B5: HER3#723 (other)
VH: B1 VH with S30Y, S31N, A33P, D90N, Q100P, F101V, T102S, T103L, T104L, Q105F
notes: Human VH domain antibody (single heavy chain variable domain), FR3 reads ...SLRAEN TAVYYC (N where the other clones have D)
B6: HER3#748 (other)
VH: B1 VH with S30Y, Y32L, A33M, H99R, Q100H, F101P, T102P, T103G, T104L, Q105M
notes: as for B1

Molecular target: T1, human serum albumin (human, UniProt P02768 25-609)
T1 construct: also called HAS; HSA
T1 sequence (P02768 25-609 limits assumed): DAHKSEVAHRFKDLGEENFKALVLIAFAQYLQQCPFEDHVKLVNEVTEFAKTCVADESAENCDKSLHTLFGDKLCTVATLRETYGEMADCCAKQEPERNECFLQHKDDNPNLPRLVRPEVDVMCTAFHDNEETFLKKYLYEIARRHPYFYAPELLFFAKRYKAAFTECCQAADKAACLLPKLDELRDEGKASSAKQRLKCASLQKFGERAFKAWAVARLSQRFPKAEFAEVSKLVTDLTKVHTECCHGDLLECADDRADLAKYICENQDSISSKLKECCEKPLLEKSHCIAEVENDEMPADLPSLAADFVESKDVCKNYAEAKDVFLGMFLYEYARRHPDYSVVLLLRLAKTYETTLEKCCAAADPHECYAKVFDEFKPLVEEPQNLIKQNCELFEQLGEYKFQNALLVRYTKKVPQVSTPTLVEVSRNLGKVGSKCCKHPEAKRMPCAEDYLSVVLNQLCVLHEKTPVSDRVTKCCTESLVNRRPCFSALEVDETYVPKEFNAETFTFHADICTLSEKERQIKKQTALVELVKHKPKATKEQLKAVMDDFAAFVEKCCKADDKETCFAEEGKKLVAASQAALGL
Experiment: method not stated; 'Affinity (nM)'

Point of comparison: B2, Kd 1.7 nM. Against it:
- B1 — 4.6-fold higher, 7.8 nM
- B3 — within 1.5-fold, 1.2 nM

Molecular target: T2, Human Epidermal Growth Factor Receptor-3 (human, UniProt P21860 20-643, limits assumed)
T2 construct: also called HER3
T2 sequence (P21860 20-643 limits assumed): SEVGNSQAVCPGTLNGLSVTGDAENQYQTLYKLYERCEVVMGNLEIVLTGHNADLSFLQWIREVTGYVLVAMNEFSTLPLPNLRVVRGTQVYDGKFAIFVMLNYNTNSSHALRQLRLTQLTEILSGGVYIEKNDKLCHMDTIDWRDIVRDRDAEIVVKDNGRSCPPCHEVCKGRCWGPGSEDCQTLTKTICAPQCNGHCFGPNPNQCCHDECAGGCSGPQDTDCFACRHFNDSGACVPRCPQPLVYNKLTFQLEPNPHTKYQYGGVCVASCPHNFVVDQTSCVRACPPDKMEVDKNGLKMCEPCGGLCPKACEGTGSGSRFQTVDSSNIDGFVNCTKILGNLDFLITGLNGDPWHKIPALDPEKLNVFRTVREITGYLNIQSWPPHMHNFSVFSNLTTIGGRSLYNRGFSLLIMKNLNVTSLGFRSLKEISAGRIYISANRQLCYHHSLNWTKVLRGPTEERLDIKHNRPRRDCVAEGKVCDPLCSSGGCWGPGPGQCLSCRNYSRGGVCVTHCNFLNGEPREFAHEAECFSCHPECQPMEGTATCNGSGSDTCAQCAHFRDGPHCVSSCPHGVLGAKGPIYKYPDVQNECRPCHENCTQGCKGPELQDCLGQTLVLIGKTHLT
Experiment: method not stated; 'Affinity (nM)'

Point of comparison: B4, Kd 1.8 nM. Against it:
- B5 — 15-fold higher, 27.4 nM
- B6 — 11-fold higher, 20 nM
